Measured values from patent publication US20050208041A1 (Bristol-Myers Squibb, published 2005).
Numbering of substitutions follows the chain as printed. Read-outs that look alike come from different tables or passages of the source. Blank lines part the entries; values can stand above or below the binder they belong to.

How the values were obtained:
[1] = target: T1, purified recombinant IFNAR-1 extracellular fragment (human, UniProt P17181 28-436); assay: Biacore, maximal association on IFNAR-1 relative to M3K1
T1 construct: extracellular domain; also called soluble IFNAR-1; soluble IFNAR
T1 sequence (looked up): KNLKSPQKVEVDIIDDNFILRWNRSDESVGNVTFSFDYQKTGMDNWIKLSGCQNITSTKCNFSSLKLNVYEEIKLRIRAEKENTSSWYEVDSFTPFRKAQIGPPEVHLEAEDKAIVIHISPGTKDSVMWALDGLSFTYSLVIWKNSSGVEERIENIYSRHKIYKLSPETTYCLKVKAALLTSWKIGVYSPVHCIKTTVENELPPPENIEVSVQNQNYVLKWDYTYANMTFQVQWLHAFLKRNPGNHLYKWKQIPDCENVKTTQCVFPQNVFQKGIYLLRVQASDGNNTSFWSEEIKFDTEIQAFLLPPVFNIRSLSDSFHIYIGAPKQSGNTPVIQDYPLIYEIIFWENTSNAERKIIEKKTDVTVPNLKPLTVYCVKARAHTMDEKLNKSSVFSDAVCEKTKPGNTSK
Text: (§1) Pools 4 and 11 were selected for further study and the individual antibodies in each pool were produced and expressed separately. The sequences of these individual antibodies were as shown in SEQ ID NO:12 of FIG. 1F and SEQ ID NO: 13 of FIG. 1G. The data is presented as maximal association relative to M3K1. […]

[2] = target: T1, purified recombinant IFNAR-1 …; assay: as above; remark: listed apart in the source
Text: as §1

[3] = target: T1, purified recombinant IFNAR-1 …; assay: Biacore, antibody on immobilized soluble IFNAR-1, maximal response, mean of four
Method: Additional combination variants heavy chain DI M3-B and light chain DI K1-C were also made. These combination variants were also tested for binding to IFNAR-1. […] Binding analysis was done by Biacore, with the antibody bound to immobilized soluble IFNAR-1. Maximal response was determined at two concentrations and values shown are mean of four determinations.

[4] = target: T1, purified recombinant IFNAR-1 …; assay: Biacore, response on IFNAR-1 (flow cell 2) divided by response on anti-human IgG Fc (flow cell 4)
[5] = target: T1, purified recombinant IFNAR-1 …; assay: Biacore, antibody captured on anti-human IgG Fc, soluble IFNAR 25-400 nM, flow cell 2-1 low density capture
[6] = target: T1, purified recombinant IFNAR-1 …; assay: Biacore, antibody captured on anti-human IgG Fc, soluble IFNAR-1 25-400 nM, flow cell 2-1 low density capture
Text: (§2) The binding affinity of M3K1 was compared to that of H3K1.

[7] = target: T1, purified recombinant IFNAR-1 …; assay: Biacore, antibody captured on anti-human IgG Fc, soluble IFNAR 25-400 nM, flow cell 4-3 higher density capture
[8] = target: T1, purified recombinant IFNAR-1 …; assay: Biacore, antibody captured on anti-human IgG Fc, soluble IFNAR-1 25-400 nM, flow cell 4-3 higher density capture
Text: as §2

[9] = target: T1, purified recombinant IFNAR-1 …; assay: Biacore, antibody captured on anti-human IgG Fc, soluble IFNAR 25-400 nM, flow cell 2-1 low density capture; Flow cell 2-1, low density capture
Text: as §2

[10] = target: T2, IFNAR-1 on human cells (human, UniProt P17181 28-557); assay: cell-based or functional assay
T2 sequence (looked up): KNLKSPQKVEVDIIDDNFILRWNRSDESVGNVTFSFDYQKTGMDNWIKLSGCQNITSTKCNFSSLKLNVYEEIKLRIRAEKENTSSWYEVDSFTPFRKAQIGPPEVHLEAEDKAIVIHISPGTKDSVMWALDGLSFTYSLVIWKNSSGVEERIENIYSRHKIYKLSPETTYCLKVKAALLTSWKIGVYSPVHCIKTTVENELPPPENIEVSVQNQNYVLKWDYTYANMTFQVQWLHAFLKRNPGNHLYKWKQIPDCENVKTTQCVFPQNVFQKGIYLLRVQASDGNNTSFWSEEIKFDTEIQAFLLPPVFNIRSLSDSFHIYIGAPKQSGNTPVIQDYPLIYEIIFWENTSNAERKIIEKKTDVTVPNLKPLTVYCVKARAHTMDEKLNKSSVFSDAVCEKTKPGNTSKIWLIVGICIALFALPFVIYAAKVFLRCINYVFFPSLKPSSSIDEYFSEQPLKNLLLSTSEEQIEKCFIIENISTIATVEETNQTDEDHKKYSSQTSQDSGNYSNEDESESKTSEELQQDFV

[11] = target: T1, purified recombinant IFNAR-1 …; assay: Biacore, 200 nM antibody on immobilized soluble IFNAR-1
[12] = target: T1, purified recombinant IFNAR-1 …; assay: Receptor Binding (Biacore), purified recombinant receptor
[13] = target: T2, IFNAR-1 on human cells; assay: Scatchard analysis, 125I-labelled antibody on BALL-1 cells
Method: BALL-1 cells, which express IFNAR-1 and IFNAR-2, were used to assess the binding of anti-IFNAR-1 humanized antibodies to cells by Scatchard analysis. The cells were grown in RPMI containing 10% FCS and washed twice with Hanks Balanced Salt Solution (HBSS) at 4 degrees C. […] Millipore plates (MAFB NOB) were coated with 1% nonfat dry milk in water and stored a 4° C. overnight. The plates were washed with binding buffer and 25 ul of unlabeled antibody (1000-fold excess) in TBS binding buffer was added to control wells in a Millipore 96 well glass fiber filter plate (non-specific binding NSB). Twenty-five microliters of buffer alone was added to the maximum binding control well (total binding). Twenty-five microliters of ¹²⁵I-anti-IFNAR-1 antibody and 25 ul of BALL-I cell suspension (4×10⁷ cells/ml) in TBS binding buffer were added. The plates were incubated for 2 hours at 200 RPM on a shaker at 4° C. At the completion of the incubation the Millipore plates were washed twice with 0.2 ml of cold TBS binding buffer containing a final concentration of 0.5 M NaCl. The filters were removed and counted in a gamma counter. Evaluation of equilibrium binding was performed using single site binding parameters with the Prism software (San Diego, Calif.).
Therefore in either a protein-based or cell-based assay, the binding affinity of the antibodies are in the low nM range.

[14] = target: T1, purified recombinant IFNAR-1 …; assay: Biacore, IFNAR-1 extracellular fragment coupled to CM5 chip, antibody 1.75-80 nM
Method: Antibodies from clones 64G12, H2K6, H2K1, H3K6, and H3K1 were assayed by Biacore analysis (Biacore AB, Uppsala, Sweden) to determine binding kinetics. Purified recombinant IFNAR-1 extracellular fragment was coupled to the CM5 sensor chip @ 600 RU. Binding was measured by adding antibody at concentrations from 1.75-80 nM at a flow rate of 20 ul/min. The binding curves were fit to a Langmuir binding model using BIAevaluation software (Biacore AB, Uppsala, Sweden).

% activity relative to M3K1 [1]: 100%
% activity relative to M3K1 [2]: 100%
% response relative to H3K1 [3]: 97%
% activity relative to H3K1 [4]: 140%
Fc2/Fc4 [4]: 0.42
Kd [5]: 7.09 nM
koff [5]: 3.79e-05 s⁻¹
Kd [6]: 7.09 nM
koff [6]: 3.79e-05 s⁻¹
kon [6]: 5340 M⁻¹ s⁻¹
Kd [7]: 7.99 nM
koff [7]: 4.39e-05 s⁻¹
kon [7]: 5490 M⁻¹ s⁻¹
Kd [8]: 7.99 nM
koff [8]: 4.39e-05 s⁻¹
kon [8]: 5490 M⁻¹ s⁻¹
kon [9]: 5340 M⁻¹ s⁻¹
B1: M3K1 (antibody, V domains shown)
VH: EVQLLESGGGLVQPGGSLRLSCAFSGFTLSTSGMGIGWVRQAPGKGLEWVAHIWWDDDKYYNPSLKSRFTISRDTSKNTVYLQMNSLRAEDTAVYYCARNYYPYDAWFDYWGQGTLVTVS
VL: DIQMTQSPSSLSASVGDRVTITCSASSSINSNHLHWYQQKPGKAPKLLIYRTSILASGVPSRFSGSGSGTSFTLTISSLQPEDFATYYCQQGSNIPFTFGQGTKVEIKR
notes: also called heavy chain M3 with light chain K1

Cell Proliferation (Daudi) IC50, cells cultured with interferon α2b [10]: 9.1 nM
ISRE-RG Reporter (U937) IC50, interferon α2b [10]: 21.5 nM
Max Response relative to H3K1 (%) [11]: 100%
% activity relative to M3K1 [1]: 115%
% activity relative to M3K1 [2]: 138%
Kd [12]: 3.4 nM
Kd [13]: 4 nM
Kd [14]: 3.4 nM
% response relative to H3K1 [3]: 100%
% activity relative to H3K1 [4]: 100%
Fc2/Fc4 [4]: 0.3
Kd [6]: 6.26 nM
koff [6]: 5.04e-05 s⁻¹
kon [6]: 8060 M⁻¹ s⁻¹
Kd [8]: 6.43 nM
koff [8]: 4.81e-05 s⁻¹
kon [8]: 7480 M⁻¹ s⁻¹
B2: H3K1 (IgG4) (antibody, V domains shown)
VH: B1 VH with L5V
VL: B1 VL
notes: also called H3K1 standard; humanized anti-IFNAR-1 mAb H3K1
